Data from article PMC9503621.

Legend:
[1] = target: large (50S) ribosomal subunit from Staphylococcus aureus (S. aureus) (UniProt Q2FW16)
[2] = target: large (50S) ribosomal subunit from Staphylococcus aureus (S. aureus) (UniProt Q2FW16); remark: listed apart in the source

Sequence of UniProt Q2FW16 (Q2FW16 whole entry, looked up): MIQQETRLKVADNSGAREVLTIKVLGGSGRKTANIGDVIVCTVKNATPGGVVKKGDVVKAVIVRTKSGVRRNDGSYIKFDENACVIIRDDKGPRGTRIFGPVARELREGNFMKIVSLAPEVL

| Substance | Mg2+ concentration at which half of the vacant 70S ribosomes are dissociated into 50S + 30S (sucrose gradient profiles, 2X molar excess of RsfS, 3-5 mM Mg2+) [1] | anti-association activity at 4 mM Mg2+ (relative amount of dissociated 50S + 30S subunits, sucrose gradient profiles) [1] | efficiency of translation inhibition in the S. aureus cell-free system at 6 mM Mg2+ (370 mM K+) [2] | loss of anti-association activity at 4 mM Mg2+ (relative amount of dissociated 50S + 30S subunits, sucrose gradient profiles) (% of activity lost) [1] |
| --- | --- | --- | --- | --- |
| Ribosomal silencing factor S (RsfS) from Staphylococcus aureus, wild type (natural protein) | 5 mM Mg2+ | 100 % activity | 80% | – |
| RsfS E70A mutant from Staphylococcus aureus (natural protein) | 4.4 mM Mg2+ | – | 70% | 20 |
| RsfS Y98A mutant from Staphylococcus aureus (natural protein) | 3.4 mM Mg2+ | – | 35% | 80 |
